Data: publication PMC2847222

Target: RepD replication initiation protein of Staphylococcus aureus plasmid pC221 (wild type) (Staphylococcus aureus (plasmid pC221)) (UniProt P03065)
Assay: AUC

UniProt P03065, sequence (P03065 whole entry): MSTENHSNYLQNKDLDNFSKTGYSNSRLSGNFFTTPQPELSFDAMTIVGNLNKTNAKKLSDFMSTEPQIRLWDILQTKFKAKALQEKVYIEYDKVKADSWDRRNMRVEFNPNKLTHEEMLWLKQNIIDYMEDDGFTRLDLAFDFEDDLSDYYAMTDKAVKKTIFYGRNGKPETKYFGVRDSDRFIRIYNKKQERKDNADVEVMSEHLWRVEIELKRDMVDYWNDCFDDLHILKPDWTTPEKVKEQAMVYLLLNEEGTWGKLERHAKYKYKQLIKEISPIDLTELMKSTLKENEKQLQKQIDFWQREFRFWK

B1: Bacillus stearothermophilus PcrA helicase (enzyme)
chain: MNFLSEQLLAHLNKEQQEAVRTTEGPLLIMAGAGSGKTRVLTHRIAYLMAEKHVAPWNILAITFTNKAAREMRERVQSLLGGAAEDVWISTFHSMCVRILRRDIDRIGINRNFSILDPTDQLSVMKTILKEKNIDPKKFEPRTILGTISAAKNELLPPEQFAKRASTYYEKVVSDVYQEYQQRLLRNHSLDFDDLIMTTIQLFDRVPDVLHYYQYKFQYIHIDEYQDTNRAQYTLVKKLAERFQNICAVGDADQSIYRWRGADIQNILSFERDYPNAKVILLEQNYRSTKRILQAANEVIEHNVNRKPKRIWTENPEGKPILYYEAMNEADEAQFVAGRIREAVERGERRYRDFAVLYRTNAQSRVMEEMLLKANIPYQIVGGLKFYDRKEIKDILAYLRVIANPDDDLSLLRIINVPKRGIGASTIDKLVRYAADHELSLFEALGELEMIGLGAKAAGALAAFRSQLEQWTQLQEYVSVTELVEEVLDKSGYREMLKAERTIEAQSRLENLDEFLSVTKHFENVSDDKSLIAFLTDLALISDLDELDGTEQAAEGDAVMLMTLHAAKGLEFPVVFLIGMEEGIFPHNRSLEDDDEMEEERRLAYVGITRAEEELVLTSAQMRTLFGNIQMDPPSRFLNEIPAHLLETASRRQAGASRPAVSRPQASGAVGSWKVGDRANHRKWGIGTVVSVRGGGDDQELDIAFPSPIGIKRLLAKFAPIEKV
Kd: 98.5 nM
